Data as given in patent US20220002431A1.

Target: CD20 on Raji cells (CD20-positive human Burkitt's lymphoma cells) (human) (UniProt P11836)
Test: cell-based or functional assay

Chain of CD20 on Raji cells (CD20-positive human Burkitt's lymphoma cells) (human) (P11836 whole entry): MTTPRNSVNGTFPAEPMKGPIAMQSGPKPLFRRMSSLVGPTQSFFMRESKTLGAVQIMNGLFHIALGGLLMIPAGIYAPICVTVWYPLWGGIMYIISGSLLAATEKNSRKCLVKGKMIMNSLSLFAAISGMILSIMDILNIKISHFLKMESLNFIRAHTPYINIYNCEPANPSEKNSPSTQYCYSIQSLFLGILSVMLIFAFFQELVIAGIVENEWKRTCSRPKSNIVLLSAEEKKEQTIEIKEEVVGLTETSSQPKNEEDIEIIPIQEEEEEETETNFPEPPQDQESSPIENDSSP

## isotype antibody (negative control)
  EC50 for killing of Raji-luc cells by CIK effector cells, luciferase read-out: 0.23 µg/mL
